The text below walks through data of PMC3278561 (Plant Cell Reports, 2011).

This data set deals with the molecule itself. The data set can be described thus: transmission electron microscopy.

B1: plant-derived Norwalk virus capsid protein (NVCP), assembled as virus-like particles (VLP) (natural protein)
chain: MMMASKDATSSVDGASGAGQLVPEVNASDPLAMDPVAGSSTAVATAGQVNPIDPWIINNFVQAPQGEFTISPNNTPGDVLFDLSLGPHLNPFLLHLSQMYNGWVGNMRVRIMLAGNAFTAGKIIVSCIPPGFGSHNLTIAQATLFPHVIADVRTLDPIEVPLEDVRNVLFHNNDRNQQTMRLVCMLYTPLRTGGGTGDSFVVAGRVMTCPSPDFNFLFLVPPTVEQKTRPFTLPNLPLSSLSNSRAPLPISSMGISPDNVQSVQFQNGRCTLDGRLVGTTPVSLSHVAKIRGTSNGTVINLTELDGTPFHPFEGPAPIGFPDLGGCDWHINMTQFGHSSQTQYDVDTTPDTFVPHLGSIQANGIGSGNYVGVLSWISPPSHPSGSQVDLWKIPNYGSSITEATHLAPSVYPPGFGEVLVFFMSKMPGPGAYNLPCLLPQEYISHLASEQAPTVGEAALLHYVDPDTGRNLGEFKAYPDGFLTCVPNGASSGPQQLPINGVFVFVSWVSRFYQLKPVGTASSARGRLGLRR
As to B1, the binding result is reported as “binds”.
